According to patent publication US20260242823:
Like-named read-outs stand apart in the source and are kept apart here.

B1: plasmin (protein)
chain: KVYLSECKTGNGKNYRGTMSKTKNGITCQKWSSTSPHRPRFSPATHPSEGLEENYCRNPDNDPQGPWCYTTDPEKRYDYCDILECEEECMHCSGENYDGKISKTMSGLECQAWDSQSPHAHGYIPSKFPNKNLKKNYCRNPDRELRPWCFTTDPNKRWELCDIPRCTTPPPSSGPTYQCLKGTGENYRGNVAVTVSGHTCQHWSAQTPHTHNRTPENFPCKNLDENYCRNPDGKRAPWCHTTNSQVRWEYCKIPSCDSSPVSTEQLAPTAPPELTPVVQDCYHGDGQSYRGTSSTTTTGKKCQSWSSMTPHRHQKTPENYPNAGLTMNYCRNPDADKGPWCFTTDPSVRWEYCNLKKCSGTEASVVAPPPVVLLPDVETPSEEDCMFGNGKGYRGKRATTVTGTPCQDWAAQEPHRHSIFTPETNPRAGLEKNYCRNPDGDVGGPWCYTTNPRKLYDYCDVPQCAAPSFDCGKPQVEPKKCPGRVVGGCVAHPHSWPWQVSLRTRFGMHFCGGTLISPEWVLTAAHCLEKSPRPSSYKVILGAHQEVNLEPHVQEIEVSRLFLEPTRKDIALLKLSSPAVITDKVIPACLPSPNYVVADRTECFITGWGETQGTFGAGLLKEAQLPVIENKVCNRYEFLNGRVQSTELCAGHLAGGTDSCQGDSGGPLVCFEKDKYILQGVTSWGLGCARPNKPGVYVRVSRFVTWIEGVMRNN

Key:
wild-type FVIII [1] = tested on: wild-type FVIII
FVIII-R336Q/R562Q [2] = tested on: FVIII-R336Q/R562Q
wild-type FVIII [3] = molecular target: wild-type FVIII; remark: listed apart in the source
FVIII-R336Q/R562Q [4] = molecular target: FVIII-R336Q/R562Q; remark: listed apart in the source

wild-type FVIII, sequence (chain, as listed by the source): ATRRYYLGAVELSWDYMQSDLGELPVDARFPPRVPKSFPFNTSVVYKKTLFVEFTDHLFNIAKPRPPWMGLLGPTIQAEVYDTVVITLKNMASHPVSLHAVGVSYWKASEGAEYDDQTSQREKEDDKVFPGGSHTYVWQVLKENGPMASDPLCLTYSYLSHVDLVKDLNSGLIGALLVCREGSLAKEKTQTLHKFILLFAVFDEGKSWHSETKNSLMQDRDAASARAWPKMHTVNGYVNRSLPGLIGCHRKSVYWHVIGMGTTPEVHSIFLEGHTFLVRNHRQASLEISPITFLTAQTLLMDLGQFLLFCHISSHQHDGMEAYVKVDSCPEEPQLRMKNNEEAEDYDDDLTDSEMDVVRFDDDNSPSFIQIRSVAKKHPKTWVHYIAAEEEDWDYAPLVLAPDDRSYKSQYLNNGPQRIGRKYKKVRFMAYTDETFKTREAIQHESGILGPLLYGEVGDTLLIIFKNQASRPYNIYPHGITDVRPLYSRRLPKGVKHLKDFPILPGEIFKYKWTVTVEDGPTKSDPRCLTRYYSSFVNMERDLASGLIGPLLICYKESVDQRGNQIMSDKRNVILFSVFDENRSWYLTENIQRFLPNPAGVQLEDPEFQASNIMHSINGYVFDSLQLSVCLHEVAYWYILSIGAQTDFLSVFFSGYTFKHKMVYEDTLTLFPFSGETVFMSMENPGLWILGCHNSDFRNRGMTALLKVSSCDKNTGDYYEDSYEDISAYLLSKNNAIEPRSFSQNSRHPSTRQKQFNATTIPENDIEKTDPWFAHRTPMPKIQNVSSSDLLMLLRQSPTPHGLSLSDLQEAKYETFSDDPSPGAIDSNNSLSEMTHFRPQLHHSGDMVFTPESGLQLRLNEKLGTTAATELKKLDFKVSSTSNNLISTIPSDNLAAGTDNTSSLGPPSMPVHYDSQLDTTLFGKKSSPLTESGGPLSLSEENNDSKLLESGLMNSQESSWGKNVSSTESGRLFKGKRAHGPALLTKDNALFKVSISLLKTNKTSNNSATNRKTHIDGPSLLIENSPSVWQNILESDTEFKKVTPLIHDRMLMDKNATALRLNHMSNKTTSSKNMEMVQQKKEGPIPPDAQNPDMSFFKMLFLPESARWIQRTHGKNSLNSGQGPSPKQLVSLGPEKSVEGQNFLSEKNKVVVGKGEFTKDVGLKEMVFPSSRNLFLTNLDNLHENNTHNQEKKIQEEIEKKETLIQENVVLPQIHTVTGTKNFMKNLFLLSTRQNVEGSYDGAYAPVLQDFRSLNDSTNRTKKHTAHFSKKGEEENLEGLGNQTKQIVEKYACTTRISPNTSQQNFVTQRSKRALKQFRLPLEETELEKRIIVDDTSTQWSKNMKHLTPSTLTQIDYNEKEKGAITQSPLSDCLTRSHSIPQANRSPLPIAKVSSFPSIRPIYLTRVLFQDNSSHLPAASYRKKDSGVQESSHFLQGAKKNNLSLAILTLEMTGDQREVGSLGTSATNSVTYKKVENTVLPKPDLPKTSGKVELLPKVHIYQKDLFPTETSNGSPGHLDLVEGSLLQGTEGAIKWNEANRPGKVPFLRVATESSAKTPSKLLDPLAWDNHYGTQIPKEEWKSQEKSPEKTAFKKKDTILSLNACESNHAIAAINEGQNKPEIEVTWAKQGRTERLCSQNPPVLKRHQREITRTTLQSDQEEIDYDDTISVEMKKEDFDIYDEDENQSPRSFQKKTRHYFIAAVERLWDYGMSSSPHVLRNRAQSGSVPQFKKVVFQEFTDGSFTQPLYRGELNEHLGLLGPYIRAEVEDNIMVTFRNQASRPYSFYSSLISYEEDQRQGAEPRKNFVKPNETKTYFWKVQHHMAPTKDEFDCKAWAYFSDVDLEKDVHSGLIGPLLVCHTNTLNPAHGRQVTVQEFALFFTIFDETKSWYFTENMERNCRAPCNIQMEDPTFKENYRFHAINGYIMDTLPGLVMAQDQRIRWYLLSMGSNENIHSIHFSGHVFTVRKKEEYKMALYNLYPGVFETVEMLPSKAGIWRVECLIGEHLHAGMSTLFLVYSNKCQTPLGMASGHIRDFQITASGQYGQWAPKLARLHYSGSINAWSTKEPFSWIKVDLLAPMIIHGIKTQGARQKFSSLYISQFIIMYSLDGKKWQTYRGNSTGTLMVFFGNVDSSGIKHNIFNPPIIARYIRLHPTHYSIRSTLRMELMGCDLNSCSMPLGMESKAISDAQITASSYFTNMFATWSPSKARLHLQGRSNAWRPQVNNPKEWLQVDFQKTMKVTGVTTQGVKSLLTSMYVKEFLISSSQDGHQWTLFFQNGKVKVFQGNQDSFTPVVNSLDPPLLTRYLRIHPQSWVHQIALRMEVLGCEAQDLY
FVIII-R336Q/R562Q, sequence (chain, as listed by the source R336Q R562Q): as the sequence (chain, as listed by the source) above, with R336Q, R562Q counted along it

| Molecule | Western Blot analysis of cleavage fragments (wild-type FVIII [1]) | Western Blot analysis of cleavage fragments (FVIII-R336Q/R562Q [2]) | Western blot cleavage at R372 (wild-type FVIII [1]) | Western Blot analysis of cleavage fragments (wild-type FVIII [3]) | Western Blot analysis of cleavage fragments (FVIII-R336Q/R562Q [4]) |
| --- | --- | --- | --- | --- | --- |
| activated protein C | all serine proteases cleaved at R336 or R562 in FVIII-WT | no such cleavage fragments were seen with FVIII-QQ |  |  |  |
| thrombin (IIa) | all serine proteases cleaved at R336 or R562 in FVIII-WT | no such cleavage fragments were seen with FVIII-QQ | thrombin (IIa) as well as multiple serine proteases can also cleave R372 of FVIII |  |  |
| FXa | all serine proteases cleaved at R336 or R562 in FVIII-WT | no such cleavage fragments were seen with FVIII-QQ |  |  |  |
| FIXa | all serine proteases cleaved at R336 or R562 in FVIII-WT | no such cleavage fragments were seen with FVIII-QQ |  |  |  |
| B1 |  |  |  | all serine proteases cleaved at R336 or R562 in FVIII-WT | no such cleavage fragments were seen with FVIII-QQ |
